Earlier results, collected in PMC10359924.
pKd: −log10 of the molar value. Like-named read-outs stand apart in the source and are kept apart here. Values belong to the substance of their own block, whether it stands above or below them.

How the values were obtained:
IL-4Rα (Homo sapiens) [1] = target: IL-4Rα (Homo sapiens) (UniProt P24394)
γc (Homo sapiens) = γc (Homo sapiens) (UniProt P31785)
IL-13Rα1 (Homo sapiens) [2] = target: IL-13Rα1 (Homo sapiens) (UniProt P78552)
IL-13Rα1 (Homo sapiens) [3] = target: IL-13Rα1 (Homo sapiens) (UniProt P78552); remark: listed apart in the source
IL-4Rα (Homo sapiens) [4] = target: IL-4Rα (Homo sapiens) (UniProt P24394); remark: listed apart in the source

IL-4/IL-4Rα complex, sequence (P05112 25-153): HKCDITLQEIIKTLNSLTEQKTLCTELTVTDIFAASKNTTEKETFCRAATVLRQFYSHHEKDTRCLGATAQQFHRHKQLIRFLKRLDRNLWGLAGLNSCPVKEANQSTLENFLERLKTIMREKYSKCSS
IL-4/IL-4Rα complex, sequence (P24394 26-232, further chain): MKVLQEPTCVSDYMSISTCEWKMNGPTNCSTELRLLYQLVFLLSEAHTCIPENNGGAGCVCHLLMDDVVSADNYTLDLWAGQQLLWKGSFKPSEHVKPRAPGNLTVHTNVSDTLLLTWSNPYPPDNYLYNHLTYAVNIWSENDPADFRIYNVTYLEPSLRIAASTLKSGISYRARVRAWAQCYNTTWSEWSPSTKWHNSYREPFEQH
IL-13Rα1 (Homo sapiens), sequence (P78552 22-343): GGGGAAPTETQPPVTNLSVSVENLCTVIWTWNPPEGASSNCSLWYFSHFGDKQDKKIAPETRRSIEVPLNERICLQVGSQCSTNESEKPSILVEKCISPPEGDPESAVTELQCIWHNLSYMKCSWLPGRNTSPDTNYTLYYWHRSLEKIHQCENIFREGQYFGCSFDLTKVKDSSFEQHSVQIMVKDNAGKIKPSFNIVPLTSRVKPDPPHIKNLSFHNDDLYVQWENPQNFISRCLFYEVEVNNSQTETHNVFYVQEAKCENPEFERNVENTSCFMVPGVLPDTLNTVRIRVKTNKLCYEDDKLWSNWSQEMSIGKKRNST
IL-4Rα (Homo sapiens), sequence (P24394 26-232): as the sequence (P24394 26-232, further chain) above
IL-13/IL-13Rα1 complex, sequence (P35225 25-146): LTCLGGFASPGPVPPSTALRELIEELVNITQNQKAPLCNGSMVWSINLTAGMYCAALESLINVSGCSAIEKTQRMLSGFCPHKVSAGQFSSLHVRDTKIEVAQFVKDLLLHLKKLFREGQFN
IL-13/IL-13Rα1 complex, sequence (P78552 22-343, further chain): as the sequence (P78552 22-343) above
IL-13, sequence (P35225 25-146): as the sequence (P35225 25-146) above
IL-4, sequence (P05112 25-153): as the sequence (P05112 25-153) above
γc (Homo sapiens), sequence (P31785 23-262): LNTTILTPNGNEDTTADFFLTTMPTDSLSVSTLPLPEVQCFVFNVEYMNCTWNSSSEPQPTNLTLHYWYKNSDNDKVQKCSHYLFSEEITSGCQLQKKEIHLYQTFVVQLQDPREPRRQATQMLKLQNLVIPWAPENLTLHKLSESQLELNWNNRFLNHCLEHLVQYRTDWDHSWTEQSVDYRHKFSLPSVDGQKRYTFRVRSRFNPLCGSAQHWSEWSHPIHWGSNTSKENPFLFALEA

pKd (IL-4Rα (Homo sapiens) [1]): 9.00
Substance: IL-4 (from UniProt P05112)

pKd (γc (Homo sapiens)): 6.25 | pKd (IL-13Rα1 (Homo sapiens) [2]): 6.31
Substance: IL-4/IL-4Rα complex (from UniProt P05112)

pKd (IL-13Rα1 (Homo sapiens) [3]): 7.52
Substance: IL-13 (from UniProt P35225)

pKd (IL-4Rα (Homo sapiens) [4]): 7.70
Substance: IL-13/IL-13Rα1 complex (from UniProt P35225)
